Target: human CEACAM5 on cells (human) (UniProt P06731)
Assay: flow cytometry, hCEACAM5-B16F10 cells

Chain of human CEACAM5 on cells (human) (P06731 35-685 limits assumed): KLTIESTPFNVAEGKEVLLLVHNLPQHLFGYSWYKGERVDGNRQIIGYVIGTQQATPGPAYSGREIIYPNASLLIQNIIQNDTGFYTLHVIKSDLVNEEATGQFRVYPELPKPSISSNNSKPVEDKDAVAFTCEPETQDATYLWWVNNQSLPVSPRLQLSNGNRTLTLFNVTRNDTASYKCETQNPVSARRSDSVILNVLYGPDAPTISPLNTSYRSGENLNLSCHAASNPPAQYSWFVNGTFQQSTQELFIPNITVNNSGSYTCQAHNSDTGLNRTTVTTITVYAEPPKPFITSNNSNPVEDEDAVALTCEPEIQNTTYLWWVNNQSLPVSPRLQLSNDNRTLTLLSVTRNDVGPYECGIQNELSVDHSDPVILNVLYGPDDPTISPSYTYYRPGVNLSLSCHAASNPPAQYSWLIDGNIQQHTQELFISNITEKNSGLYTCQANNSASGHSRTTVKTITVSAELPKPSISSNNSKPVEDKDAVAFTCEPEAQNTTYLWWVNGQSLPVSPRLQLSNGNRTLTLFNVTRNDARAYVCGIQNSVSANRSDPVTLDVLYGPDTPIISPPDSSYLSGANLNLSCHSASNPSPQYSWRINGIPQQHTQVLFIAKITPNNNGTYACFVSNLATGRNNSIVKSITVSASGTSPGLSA

EC50: 21.8 nM
B1: mAB0621 mouse surrogate duobody TriNKET (bispecific antibody, part only; not given: NKG2D arm, mouse constant regions, V domains shown, part only)
VH: QVQLVQSGAEVKKPGASVKVSCKASGYTFTAYTIHWVRQAPGQCLEWMGYINPSSGYTEYNQKFKDRTTLTADTSISTAYMELSRLRSDDTAVYYCTREGGLLWFDYWGQGTLVTVSS
VL: DIVMTQSPDSLAVSLGERATINCKSSHSLLYGNFQNNYLAWYQQKPGQPPKLLIYWASTRESGVPDRFSGSGSGTDFTLTISSLQAEDVAVYYCQQYYSYPYTFGCGTKLEIK
